According to publication PMC4019675 (Nature cell biology, 2013):

T1: FtsA (wild-type, untagged) (E. coli (PCR amplified from MG1655 …, UniProt P0ABH0 1-420))
T1 sequence (looked up): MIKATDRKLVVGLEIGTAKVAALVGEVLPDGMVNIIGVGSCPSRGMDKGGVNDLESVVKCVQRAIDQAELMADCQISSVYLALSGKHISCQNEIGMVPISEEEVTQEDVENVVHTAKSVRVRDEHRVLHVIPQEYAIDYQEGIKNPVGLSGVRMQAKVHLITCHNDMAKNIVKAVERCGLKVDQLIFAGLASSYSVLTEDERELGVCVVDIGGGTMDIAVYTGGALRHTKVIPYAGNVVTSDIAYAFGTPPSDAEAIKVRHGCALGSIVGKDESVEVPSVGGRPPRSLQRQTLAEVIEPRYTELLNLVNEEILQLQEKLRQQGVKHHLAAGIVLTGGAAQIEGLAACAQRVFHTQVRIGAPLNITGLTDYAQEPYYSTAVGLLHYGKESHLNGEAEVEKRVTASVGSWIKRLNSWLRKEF

B1: FtsZ (untagged) (natural protein, UniProt P0A9A6 1-383, looked up)
chain: MFEPMELTNDAVIKVIGVGGGGGNAVEHMVRERIEGVEFFAVNTDAQALRKTAVGQTIQIGSGITKGLGAGANPEVGRNAADEDRDALRAALEGADMVFIAAGMGGGTGTGAAPVVAEVAKDLGILTVAVVTKPFNFEGKKRMAFAEQGITELSKHVDSLITIPNDKLLKVLGRGISLLDAFGAANDVLKGAVQGIAELITRPGLMNVDFADVRTVMSEMGYAMMGSGVASGEDRAEEAAEMAISSPLLEDIDLSGARGVLVNITAGFDLRLDEFETVGNTIRAFASDNATVVIGTSLDPDMNDELRVTVVATGIGMDKRPEITLVTNKQVQQPVMDRYQQHGMAPLTQEQKPVAKVVNDNAPQTAKEPDYLDIPAFLRKQAD
B2: His-Δ22-ZipA (domain or fragment)
chain: not shown

Key:
[1] = target: T1, FtsA (wild-type, untagged); assay: co-sedimentation
[2] = target: B1; assay: co-sedimentation

B1: binds [1].

B2: binds [2].
